Laboratory results published in the Human Domainome abundance scans (Beltran et al. 2025).
± gives the uncertainty stated by the source.

B1: Pre-mRNA-processing factor 40 homolog B, residues 274 to 332; numbered along this chain, Q6NWY9 (parent)
chain: SNREKAKQAFKELLRDKAVPSNASWEQAMKMVVTDPRYSALPKLSEKKQAFNAYKAQRE

Variants of: B1
Assay: abundance fitness (aPCA) (normalised: wild type 0, dead -1); higher = more abundant; growth selection in yeast, the domain comes from the species named
Settings: Homo sapiens

Variant | abundance fitness
E26H | -0.237 ± 0.22
E26S | -0.229 ± 0.089
E26K | -0.169 ± 0.13
E26Y | -0.581 ± 0.14
E26V | -0.364 ± 0.083
E26W | -0.598 ± 0.11
E26D | -0.019 ± 0.12
E26T | -0.006 ± 0.13
E26Q | -0.412 ± 0.16
E26F | -0.729 ± 0.16
S24C | -0.371 ± 0.16
S24E | -0.306 ± 0.088
S24Y | -0.74 ± 0.18
S24K | -0.229 ± 0.091
S24M | -0.591 ± 0.093
S24H | -0.344 ± 0.15
S24F | -0.654 ± 0.13
S24D | -0.355 ± 0.12
S24P | -0.169 ± 0.13
S24G | -0.366 ± 0.064
S24A | -0.238 ± 0.063
S24R | -0.671 ± 0.079
S24Q | -0.422 ± 0.1
S24W | -1 ± 0.13

Variant | abundance fitness
S24I | -0.65 ± 0.19
S24V | -0.644 ± 0.067
S24N | -0.447 ± 0.2
W25C | -0.109 ± 0.12
W25T | -0.149 ± 0.093
W25L | -0.242 ± 0.087
W25K | -0.221 ± 0.14
W25N | 0.038 ± 0.12
W25D | -0.114 ± 0.1
W25Q | -0.36 ± 0.3
W25A | -0.244 ± 0.082
W25P | -0.237 ± 0.11
W25E | -0.095 ± 0.092
W25V | -0.291 ± 0.073
W25Y | -0.18 ± 0.12
W25F | 0.249 ± 0.12
W25R | -0.189 ± 0.057
W25H | -0.347 ± 0.22
W25S | -0.13 ± 0.075
W25I | -0.251 ± 0.18
W25G | -0.161 ± 0.055
Q27K | -0.292 ± 0.12
Q27G | -0.358 ± 0.059
Q27H | -0.096 ± 0.24

Variant | abundance fitness
Q27M | -0.297 ± 0.14
Q27R | -0.342 ± 0.059
Q27N | -0.174 ± 0.15
Q27T | 0.027 ± 0.11
Q27V | -0.297 ± 0.091
Q27F | -0.884 ± 0.23
Q27C | -0.422 ± 0.11
Q27I | -0.301 ± 0.2
Q27S | -0.406 ± 0.11
Q27E | 0.115 ± 0.11
Q27Y | -0.524 ± 0.15
Q27P | -0.531 ± 0.2
Q27A | -0.143 ± 0.091
Q27W | -1 ± 0.095
V32T | -0.094 ± 0.083
V32R | -0.599 ± 0.064
V32D | -0.347 ± 0.091
V32H | -0.091 ± 0.13
V32Y | -0.583 ± 0.12
V32N | -0.294 ± 0.14
V32C | -0.113 ± 0.078
V32M | -0.175 ± 0.1
V32L | -0.182 ± 0.1
V32E | -0.166 ± 0.09

Variant | abundance fitness
V32G | -0.381 ± 0.055
V32I | 0.178 ± 0.086
V32K | -0.171 ± 0.11
V32W | -0.732 ± 0.091
V32A | -0.489 ± 0.079
V32F | -0.619 ± 0.13
V32Q | -0.428 ± 0.14
V32P | -0.439 ± 0.11
V32S | -0.343 ± 0.075
V33A | 0.141 ± 0.074
V33L | -0.135 ± 0.067
V33Y | -0.269 ± 0.2
V33W | 0.012 ± 0.088
V33S | 0.198 ± 0.073
V33E | 0.169 ± 0.093
V33T | -0.042 ± 0.12
V33G | 0.055 ± 0.054
V33D | 0.006 ± 0.13
V33C | 0.137 ± 0.086
V33M | 0.171 ± 0.12
V33K | 0.169 ± 0.12
V33Q | 0.053 ± 0.17
V33P | -0.384 ± 0.12
V33N | 0.152 ± 0.16

Variant | abundance fitness
V33H | 0.164 ± 0.14
V33F | -0.228 ± 0.11
N22I | -1.04 ± 0.31
N22S | -0.036 ± 0.074
N22F | -0.906 ± 0.24
N22D | 0.05 ± 0.08
N22P | -0.664 ± 0.13
N22K | -0.553 ± 0.11
N22Q | -0.217 ± 0.16
N22R | -0.505 ± 0.06
N22T | -0.014 ± 0.082
N22H | -0.179 ± 0.17
N22W | -0.063 ± 0.1
N22G | -0.217 ± 0.062
N22L | -0.446 ± 0.089
N22M | -0.623 ± 0.19
N22Y | -0.57 ± 0.15
N22E | 0.03 ± 0.088
N22C | -0.211 ± 0.13
S21C | -0.001 ± 0.1
S21F | 0.029 ± 0.11
S21R | -0.083 ± 0.073
S21T | 0.06 ± 0.093
S21M | 0.074 ± 0.11

Variant | abundance fitness
S21Q | 0.014 ± 0.13
S21E | -0.054 ± 0.12
S21H | -0.037 ± 0.47
S21Y | 0.005 ± 0.12
S21L | 0.109 ± 0.087
S21W | -0.055 ± 0.13
S21K | 0.134 ± 0.12
S21G | -0.103 ± 0.074
S21D | -0.077 ± 0.1
S21V | 0.089 ± 0.073
S21P | -0.146 ± 0.1
S21N | -0.492 ± 0.16
A40C | -0.129 ± 0.2
D35T | -0.714 ± 0.13
D35Y | -1.38 ± 0.31
D35S | -0.716 ± 0.097
D35W | -1.21 ± 0.12
D35G | -0.742 ± 0.063
D35M | -0.699 ± 0.12
D35L | -0.853 ± 0.1
D35A | -0.701 ± 0.083
D35Q | -0.823 ± 0.16
D35F | -0.951 ± 0.26
D35P | -0.905 ± 0.14

Variant | abundance fitness
D35K | -1.11 ± 0.18
D35N | -0.415 ± 0.15
D35I | -0.94 ± 0.2
D35R | -1.12 ± 0.093
D35E | -0.372 ± 0.084
D35V | -0.85 ± 0.079
M31C | -0.422 ± 0.12
M31S | -0.115 ± 0.077
M31R | -0.266 ± 0.06
M31F | -0.634 ± 0.19
M31L | -0.189 ± 0.099
M31Y | -0.32 ± 0.14
M31D | -0.272 ± 0.11
M31W | -0.865 ± 0.13
M31Q | -0.246 ± 0.15
M31V | -0.326 ± 0.084
M31H | -0.208 ± 0.17
M31N | -0.364 ± 0.17
M31P | -0.247 ± 0.15
M31G | -0.231 ± 0.059
M31T | -0.336 ± 0.11
M31E | -0.109 ± 0.088
M31K | -0.293 ± 0.094
